Measurements: patent US20230203146A1 (Boehringer Ingelheim, published 2023)
Positions count from the first letter of the chain named. Read-outs that look alike come from different tables or passages of the source.

What was measured:
[1] = target: T1, N-terminally FLAG-tagged mouse Ang2 (HEK293T conditioned medium) (mouse, UniProt O35608 19-496); experiment: competition ELISA, FLAG-mAng2 on coated mTie2-Fc
T1 construct: may be a nucleotide entry; also called mAng2; FLAG-mAng2
T1 sequence: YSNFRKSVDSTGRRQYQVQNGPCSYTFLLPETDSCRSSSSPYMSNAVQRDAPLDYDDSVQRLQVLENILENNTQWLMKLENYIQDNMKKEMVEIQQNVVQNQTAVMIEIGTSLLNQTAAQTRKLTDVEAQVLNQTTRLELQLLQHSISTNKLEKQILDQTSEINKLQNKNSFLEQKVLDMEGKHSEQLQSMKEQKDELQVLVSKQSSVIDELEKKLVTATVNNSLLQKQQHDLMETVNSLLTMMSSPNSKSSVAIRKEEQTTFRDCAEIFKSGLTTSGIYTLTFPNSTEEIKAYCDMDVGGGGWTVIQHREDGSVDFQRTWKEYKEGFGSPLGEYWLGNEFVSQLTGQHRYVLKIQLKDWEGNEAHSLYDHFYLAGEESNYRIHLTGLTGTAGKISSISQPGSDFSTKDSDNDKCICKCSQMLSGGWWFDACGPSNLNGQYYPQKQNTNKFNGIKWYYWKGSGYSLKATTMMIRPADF
Procedure: (§1) In brief, 2 μg/mL of recombinant mouse Tie2-Fc or cyno Tie2-Fc is coated overnight at 4° C. in a 96-well MaxiSorp plate (Nunc, Wiesbaden, Germany). Coated wells are blocked with a 1% casein solution.

[2] = target: T1, N-terminally FLAG-tagged mouse Ang2 …; experiment: competition ELISA, periplasmic extract, FLAG-mAng2 on mTie2/Fc
Procedure: In brief, human Tie2/Fc chimera (R&D Systems, Minneapolis, Minn., USA) is biotinylated using N-hydroxysulfosuccinimide ester of biotin (Thermo Fisher Scientific, Rockford, Ill., USA). […] To this mixture, the Acceptor beads and 0.3 nM biotinylated human Tie2/Fc chimeras are added and further incubated for 2 hours at room temperature. Finally, streptavidin conjugated Donor beads (Perkin Elmer, Waltham, Mass., US) are added and the mixture is incubated for an additional 2 hours at room temperature. Assay buffer is PBS+0.03% Tween-20+0.1% BSA. Fluorescence is measured using the Envision Multilabel Plate reader (Perkin Elmer, Waltham, Mass., USA) using an excitation wavelength of 680 nm and an emission wavelength of 520 nm. […] In brief, human or mouse Tie2/Fc chimera (R&D Systems, Minneapolis, Minn., USA) are immobilized at 2 μg/mL overnight at 4° C. in a 96-well MaxiSorp plate (Nunc, Wiesbaden, Germany). Wells are blocked with a 1% casein solution. […] This mixture is added to the Tie2/Fc coated well and incubated for 2 hours at room temperature. Residual binding of Ang is detected using HRP-conjugated anti-FLAG M2 antibody (Sigma, St Louis, Mo., USA).

[3] = target: T1, N-terminally FLAG-tagged mouse Ang2 …; experiment: competition ELISA, FLAG-mAng2 on coated mTie2-Fc; remark: listed apart in the source
Procedure: as §1

[4] = target: T2, N-terminally FLAG-tagged cynomolgus Ang2 (HEK293T conditioned medium) (cynomolgus, UniProt O15123 19-496 (human entry), limits assumed); experiment: competition ELISA, FLAG-cAng2 on coated cTie2-Fc
T2 construct: may be a nucleotide entry; also called cAng2; FLAG-cAng2
T2 chain: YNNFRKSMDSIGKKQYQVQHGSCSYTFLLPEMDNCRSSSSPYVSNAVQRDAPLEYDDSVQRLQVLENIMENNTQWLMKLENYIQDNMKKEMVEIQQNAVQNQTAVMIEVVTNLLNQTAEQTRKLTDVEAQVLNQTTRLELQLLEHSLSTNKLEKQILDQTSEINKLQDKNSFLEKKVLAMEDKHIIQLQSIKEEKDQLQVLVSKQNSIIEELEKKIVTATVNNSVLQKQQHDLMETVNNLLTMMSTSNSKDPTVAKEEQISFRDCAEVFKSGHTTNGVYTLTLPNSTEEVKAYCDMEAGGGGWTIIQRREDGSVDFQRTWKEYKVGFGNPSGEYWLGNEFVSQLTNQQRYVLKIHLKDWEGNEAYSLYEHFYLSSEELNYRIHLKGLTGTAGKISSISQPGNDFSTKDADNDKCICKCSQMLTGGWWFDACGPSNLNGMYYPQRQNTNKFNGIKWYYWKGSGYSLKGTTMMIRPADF
Procedure: as §1

[5] = target: T3, recombinant human Ang2-FLD (human, UniProt O15123 275-496, limits assumed); experiment: SPR (Biacore T100), binder on CM5 chip, Ang2-FLD as analyte
T3 construct: domain: FLD; not used
T3 sequence (looked up): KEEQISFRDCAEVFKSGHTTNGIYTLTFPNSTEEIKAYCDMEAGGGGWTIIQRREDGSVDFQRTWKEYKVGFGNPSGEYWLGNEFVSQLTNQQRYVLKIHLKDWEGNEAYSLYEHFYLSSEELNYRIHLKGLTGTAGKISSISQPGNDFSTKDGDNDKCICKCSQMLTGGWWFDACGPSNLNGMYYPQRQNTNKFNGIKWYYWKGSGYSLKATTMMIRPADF
Procedure: (§2) In brief, VHH and benchmark compounds are immobilized on a CM5 chip via amine coupling. […] Ang2-FLD species are allowed to associate for 2 min and to dissociate for 20 min at a flow rate of 45 μL/min. In between injections, the surfaces are regenerated with a 10 sec pulse of 25 mM NaOH and 60 sec stabilization period. Association/dissociation data are evaluated by fitting a 1:1 interaction model (Langmuir binding). The affinity constant KD is calculated from resulting association and dissociation rate constants kₐ and kd and are depicted in Table 8.

[6] = target: T4, recombinant cynomolgus Ang2-FLD (cynomolgus); experiment: as above
T4 construct: domain: FLD; also called cyno Ang2-FLD
Procedure: as §2

[7] = target: T5, recombinant mouse Ang2-FLD (mouse, UniProt O35608 275-496, limits assumed); experiment: as above
T5 construct: domain: FLD
T5 sequence (looked up): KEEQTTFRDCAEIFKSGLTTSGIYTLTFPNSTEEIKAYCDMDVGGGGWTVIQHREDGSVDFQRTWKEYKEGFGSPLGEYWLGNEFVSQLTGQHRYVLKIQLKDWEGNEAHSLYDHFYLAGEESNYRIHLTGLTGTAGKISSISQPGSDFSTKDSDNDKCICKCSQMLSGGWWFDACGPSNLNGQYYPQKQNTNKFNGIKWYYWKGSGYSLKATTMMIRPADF
Procedure: as §2

[8] = target: T6, FLAG-tagged cynomolgus Ang2 (cynomolgus, UniProt O15123 19-496 (human entry), limits assumed); experiment: competition ELISA: FLAG-cAng2 binding to coated cTie2-Fc
T6 construct: N-terminally FLAG-tagged, conditioned medium of HEK293T cells; also called cAng2; FLAG-cAng2
T6 chain: T2 chain
Procedure: as §1

FLAG-tagged mouse Ang2 = target: T7, FLAG-tagged mouse Ang2 (mouse, UniProt O35608 19-496); experiment: competition ELISA: FLAG-mAng2 binding to coated mTie2-Fc
T7 construct: N-terminally FLAG-tagged, conditioned medium of HEK293T cells; also called mAng2; FLAG-mAng2
T7 sequence: T1 sequence
Procedure: as §1

[9] = target: T6, FLAG-tagged cynomolgus Ang2; experiment: competition ELISA: FLAG-cAng2 binding to coated cTie2-Fc
Procedure: as §1

B1: VHH 15H04 (VHH)
VHH: EVQLVESGGGLVQAGGSLGLSCAASERTLPSYVMGWFRQAPGKELEFVAGISWSSGRTYYTDSVKGRFTISRDAAENTWYLQMNSLKPEDTAVYYCASNSVSEPTLHTWQYEASYDYWGQGTQVTVSS
notes: also called 015H04; not shown: C-terminal c-myc tag and His6 tag
- IC50 [1]: 125 nM
- % inh [2]: 38%

B2: VHH 13A02 (VHH)
VHH: EVQLVESGGGLVQAGGSLRLSCAASGGTFSSYSMGWFRQAPGKEREFIAAINWNGDSTYYEDSVKGRFTVSRDNAKNTVYLQMNSLKPEDTAVYYCAATGWGRAYEQAYEYDVWGQGTQVTVSS
notes: also called 013A02; not shown: C-terminal c-myc tag and His6 tag
- IC50 [1]: 6.1 nM
- IC50 [3]: 26.6 nM
- % inh [2]: 97%
- IC50 [4]: 33.1 nM
- Kd [5]: 9.9 nM
- koff [5]: 0.091 s⁻¹
- kon [5]: 9.2e+06 M⁻¹ s⁻¹
- Kd [6]: 8.7 nM
- koff [6]: 0.094 s⁻¹
- kon [6]: 1.1e+07 M⁻¹ s⁻¹
- Kd [7]: 18 nM
- koff [7]: 0.034 s⁻¹
- kon [7]: 1.9e+06 M⁻¹ s⁻¹

B3: VHH 22C07 (VHH)
VHH: EVQLVESGGGLVQAGGSLRLSCAASGFTFDDYAIGWFRQAPGKEREGVSCISSSDGSTYYADSVKGRFTISSDNAKNTVYLQMNSLKPEDTAVYYCAADFIISSKRLCLDLFGSRGQGTQVTVSS
notes: also called 022C07; not shown: C-terminal c-myc tag and His6 tag
- IC50 [1]: 13.6 nM
- % inh [2]: 82%

B4: VHH 25F01 (VHH)
VHH: EVQLVESGGGLVQAGGSLRLSCAVSGLPFDDYVIGWFRQAPGKEREGVSCISSSDGSTYYADSVKGRFTISSDNAKNTVYLQMNSLKPEDTAAYYCAAGGPRINIATMTCSHDEYEYDYWGQGTQVTVSS
notes: also called 025F01; not shown: C-terminal c-myc tag and His6 tag
- IC50 [1]: 13.3 nM
- % inh [2]: 42%

B5: VHH 22G11 (VHH)
VHH: EVQLVESGGGLVQAGGSLRLSCAVSGFTFDDYAIGWFRQAPGKEREGVSCISRSDGSPYYADSVKGRFTISSDNAKGTVYLQMSSLKPEDTAVYYCAASWSGAYYSGTYYCDRLYEYDAWGQGTQVTVSS
notes: Tested as periplasmic extract; also called 022G11; not shown: C-terminal c-myc tag and His6 tag
- % inh [2]: 98%

B6: VHH 32H10 (VHH)
VHH: EVQLVESGGGLVQAGGSLRLSCAASGFDFEDYDMGWFRQAPGKEREGVSYISSSDGSTYYTDSVKGRFTISSDNAKNTVYLQMNSLIPEDTAVYYCAARPWTRRVYGSSWLARSLDEYEYDYWGQGTQVTVSS
notes: also called 032H10; not shown: C-terminal c-myc tag and His6 tag
- IC50 [3]: 13 nM
- % inh [2]: 58%

B7: VHH 11B07 (VHH)
VHH: EVQLVESGGGLVQVGDSLRLSCAASGRTFSTYLMVGWFRQAPGKEREFAAGIWSSGDTAYADSVRGRFTISRDNAKNTVYLQMNSLKTEDTAVYYCAGSYDGNYYIPGFYKDWGQGTQVTVSS
notes: also called 011B07; not shown: C-terminal c-myc tag and His6 tag
- IC50 [1]: 21 nM
- IC50 [3]: 39.7 nM
- IC50 [4]: 24.8 nM
- Kd [5]: 6.7 nM
- koff [5]: 0.062 s⁻¹
- kon [5]: 9.2e+06 M⁻¹ s⁻¹
- Kd [6]: 6.1 nM
- koff [6]: 0.073 s⁻¹
- kon [6]: 1.2e+07 M⁻¹ s⁻¹
- Kd [7]: 29 nM
- koff [7]: 0.14 s⁻¹
- kon [7]: 4.8e+06 M⁻¹ s⁻¹

B8: VHH 8A11 (VHH)
VHH: EVQLVESGGGLVQAGGSLRLSCAASGRTFSSYAMGWFRQAPGKELEFVTAVSWSGGSTYYADSVKGRFTISRDSAKNTVYLQMNSLKPEDTAVYYCAAQSTIVEVTTLEAYDYWGQGTQVTVSS
notes: also called 008A11; not shown: C-terminal c-myc tag and His6 tag
- IC50 [1]: 442 nM
- % inh [2]: 13%

B9: VHH 00052 (VHH, not shown: small tags and cut ends)
VHH: EVQLVESGGGLVQPGGSLRLSCAASGFTLDDYAIGWFRQAPGKEREGVSSIRDNDGSTYYADSVKGRFTISSDNDKNTVYLQMNSLRPEDTAVYYCAAVPAGRLRFGEQWYPLYEYDAWGQGTLVTVSS
- IC50 [8]: 0.8 nM
- IC50 (FLAG-tagged mouse Ang2): 2.1 nM

B10: VHH 00053 (VHH, not shown: small tags and cut ends)
VHH: B9 VHH with S72R
- IC50 [8]: 13.8 nM
- IC50 (FLAG-tagged mouse Ang2): 36.7 nM

B11: VHH 00054 (VHH, not shown: small tags and cut ends)
VHH: B9 VHH with S72R, D75S
- IC50 [8]: 11.7 nM
- IC50 (FLAG-tagged mouse Ang2): 22.9 nM

B12: VHH 00055 (VHH, not shown: small tags and cut ends)
VHH: B9 VHH with P14A, D55G, R87K
- IC50 [8]: 2 nM
- IC50 (FLAG-tagged mouse Ang2): 4.6 nM

B13: VHH 00934 (VHH, not shown: small tags and cut ends)
VHH: B9 VHH with F27I, S50A, D53E, N54S, D55G, D75S, F106Y, L113I
notes: Cycle 3 variant of 28D10 on the 00908 backbone
- IC50 [9]: 0.071 nM

B14: VHH 00936 (VHH, not shown: small tags and cut ends)
VHH: B9 VHH with A24V, F27I, S50A, D55G, D75S, F106Y, L113I
notes: as for B13
- IC50 [9]: 0.06 nM

B15: VHH 00937 (VHH, not shown: small tags and cut ends)
VHH: B9 VHH with A24V, F27I, S50A, D53E, N54S, D55G, D75S, F106Y, L113I
notes: as for B13
- IC50 [9]: 0.085 nM
